From US20260062487A1

Columns and labels:
[1] = biological target: HLA-A*01:01 with … (ERGIC3) from cells (human); assay: IP-MS, K562-A*01:01 lysate
[2] = biological target: HLA-A*01:01 with … (RBM4) from cells (human); assay: IP-MS, K562-A*01:01 lysate
[3] = biological target: HLA-A*01:01 with … (UBR2) from cells (human); assay: IP-MS, K562-A*01:01 lysate
[4] = biological target: off-target HLA-A*01:01_… (PTS) on cells (human); assay: IP-MS, K562-A*01:01 lysate
[5] = biological target: HLA-A*01:01 with … (DSG3) from cells (human); assay: IP-MS, NCI-H1703 lysate, Rep1
[6] = biological target: HLA-A*01:01 with … (DSG4) from cells (human); assay: IP-MS, NCI-H1703 lysate, Rep1
[7] = biological target: HLA-A*01:01 with … (ERGIC3) from cells (human); assay: IP-MS, NCI-H1703 lysate, Rep1
[8] = biological target: HLA-A*01:01 with … (RBM4) from cells (human); assay: IP-MS, NCI-H1703 lysate, Rep1
[9] = biological target: HLA-A*01:01 with … (ROBO1) on cells (human); assay: IP-MS, NCI-H1703 lysate, Rep1
[10] = biological target: HLA-A*01:01 with … (UBR2) from cells (human); assay: IP-MS, NCI-H1703 lysate, Rep1
[11] = biological target: HLA-PEPTIDE target A*01:01_… (G2) on cells (human); assay: IP-MS, NCI-H1703 lysate, Rep1
[12] = biological target: off-target HLA-A*01:01_… (ICE1) on cells (human); assay: IP-MS, NCI-H1703 lysate, Rep1
[13] = biological target: off-target HLA-A*01:01_… (KDM7A) on cells (human); assay: IP-MS, NCI-H1703 lysate, Rep1
[14] = biological target: off-target HLA-A*01:01_… (PTS) on cells (human); assay: IP-MS, NCI-H1703 lysate, Rep1
[15] = biological target: HLA-A*01:01 with … (DSG3) from cells (human); assay: IP-MS, NCI-H1703 lysate, Rep2
[16] = biological target: HLA-A*01:01 with … (DSG4) from cells (human); assay: IP-MS, NCI-H1703 lysate, Rep2
[17] = biological target: HLA-A*01:01 with … (ERGIC3) from cells (human); assay: IP-MS, NCI-H1703 lysate, Rep2
[18] = biological target: HLA-A*01:01 with … (RBM4) from cells (human); assay: IP-MS, NCI-H1703 lysate, Rep2
[19] = biological target: HLA-A*01:01 with … (ROBO1) on cells (human); assay: IP-MS, NCI-H1703 lysate, Rep2
[20] = biological target: HLA-A*01:01 with … (UBR2) from cells (human); assay: IP-MS, NCI-H1703 lysate, Rep2
[21] = biological target: HLA-PEPTIDE target A*01:01_… (G2) on cells (human); assay: IP-MS, NCI-H1703 lysate, Rep2
[22] = biological target: off-target HLA-A*01:01_… (ICE1) on cells (human); assay: IP-MS, NCI-H1703 lysate, Rep2
[23] = biological target: off-target HLA-A*01:01_… (KDM7A) on cells (human); assay: IP-MS, NCI-H1703 lysate, Rep2
[24] = biological target: off-target HLA-A*01:01_… (PTS) on cells (human); assay: IP-MS, NCI-H1703 lysate, Rep2
[25] = biological target: HLA-A*01:01 with … (DSG3) from cells (human); assay: IP-MS, NCI-H1703 lysate, Rep1 (peptide also 0 with W6/32)
[26] = biological target: HLA-A*01:01 with … (DSG4) from cells (human); assay: as above
[27] = biological target: HLA-A*01:01 with … (DSG3) from cells (human); assay: IP-MS, NCI-H1703 lysate, Rep2 (peptide also 0 with W6/32)
[28] = biological target: HLA-A*01:01 with … (DSG4) from cells (human); assay: as above

Substance	copies per cell of the peptide recovered by immunoprecipitation (copies per cell) [7]	copies per cell of the peptide recovered by immunoprecipitation (copies per cell) [8]	copies per cell of the peptide recovered by immunoprecipitation (copies per cell) [10]	copies per cell of the peptide recovered by immunoprecipitation (copies per cell) [12]	copies per cell of the peptide recovered by immunoprecipitation (copies per cell) [14]	copies per cell of the peptide recovered by immunoprecipitation (copies per cell) [17]	copies per cell of the peptide recovered by immunoprecipitation (copies per cell) [18]	copies per cell of the peptide recovered by immunoprecipitation (copies per cell) [20]	copies per cell of the peptide recovered by immunoprecipitation (copies per cell) [22]	copies per cell of the peptide recovered by immunoprecipitation (copies per cell) [24]	further results
W6/32 antibody	3360	16700	891	2660	2930	3350	16700	876	2740	2980	copies per cell of the peptide recovered by immunoprecipitation (copies per cell) [1]: 96; copies per cell of the peptide recovered by immunoprecipitation (copies per cell) [2]: 1000; copies per cell of the peptide recovered by immunoprecipitation (copies per cell) [3]: 6; copies per cell of the peptide recovered by immunoprecipitation (copies per cell) [4]: 91; copies per cell of the peptide recovered by immunoprecipitation (copies per cell) [5]: 0; copies per cell of the peptide recovered by immunoprecipitation (copies per cell) [6]: 0; copies per cell of the peptide recovered by immunoprecipitation (copies per cell) [9]: 554; copies per cell of the peptide recovered by immunoprecipitation (copies per cell) [11]: 3790; copies per cell of the peptide recovered by immunoprecipitation (copies per cell) [13]: 2; copies per cell of the peptide recovered by immunoprecipitation (copies per cell) [15]: 0; copies per cell of the peptide recovered by immunoprecipitation (copies per cell) [16]: 0; copies per cell of the peptide recovered by immunoprecipitation (copies per cell) [19]: 517; copies per cell of the peptide recovered by immunoprecipitation (copies per cell) [21]: 4040; copies per cell of the peptide recovered by immunoprecipitation (copies per cell) [23]: 2
control IgG antibodies (antibody)	25	113	6	35	32	15	79	4	21	25	copies per cell of the peptide recovered by immunoprecipitation (copies per cell) [25]: 0; copies per cell of the peptide recovered by immunoprecipitation (copies per cell) [26]: 0; copies per cell of the peptide recovered by immunoprecipitation (copies per cell) [27]: 0; copies per cell of the peptide recovered by immunoprecipitation (copies per cell) [28]: 0
